{"source": "paper PMC10951451", "about": "(Current Therapeutic Research, Clinical and Experimental, 2024)", "assay_type": "in vivo, Norwegian domestic pigs (Sus scrofa domesticus)", "conditions": "for AUC0–∞ with AUC of porcine insulin subtracted: mean (SD)", "note": "Where two headings read alike, the source gives them in different places.", "data": [{"substance": "insulin aspart", "values": [{"measurement": "AUC0–∞ with AUC of porcine insulin subtracted", "setting": "glucagon group: 10 IU insulin aspart sc + 100 µg glucagon, n = 6", "result": "7908 (1159) mU/L/min"}, {"measurement": "Median AUC0–∞ plasma insulin concentration", "setting": "glucagon group: 10 IU insulin aspart sc + 100 µg glucagon", "result": 8419, "unit": "mU/L/min"}, {"measurement": "AUC0–∞ with AUC of porcine insulin subtracted", "setting": "placebo group: 10 IU insulin aspart sc + saline, 1 of 6 pigs excluded", "result": "5372 (994) mU/L/min"}, {"measurement": "Median AUC0–∞ plasma insulin concentration", "setting": "placebo group: 10 IU insulin aspart sc + saline", "result": 6211, "unit": "mU/L/min"}]}]}
